Columns and labels:
[1] = tested on: HeLa Kyoto; test: solubility change mitosis vs G1/S (difference of NP-40 vs SDS log2 ratios) (log2 ratio difference); higher = more soluble in mitosis
[2] = tested on: HeLa Kyoto; test: thermal stability score vs G1/S (z-score of summed log2 fold changes over temperatures); higher = more thermally stable than in G1/S
[3] = tested on: HeLa Kyoto; test: solubility in G1/S (NP-40 vs SDS abundance) (log2 ratio); higher = more soluble; conditions: cell cycle stage: G1/S
[4] = tested on: HeLa Kyoto; test: melting temperature (median over replicates), in situ; higher = more thermally stable
[5] = cell cycle stage: early G1 (4.5 h after nocodazole release)
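Wherever melting temperature (median over replicates), in situ is given: HeLa Kyoto cells synchronized by double thymidine or nocodazole block, proteins quantified by TMT10plex mass spectrometry, three independent biological replicates.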
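Wherever solubility change mitosis vs G1/S (difference of NP-40 vs SDS log2 ratios) is given: synchronized HeLa Kyoto cells (double thymidine block for G1/S, nocodazole release for mitosis), protein amounts in NP-40 versus SDS lysates quantified by mass spectrometry, three biological replicates.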
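Wherever solubility in G1/S (NP-40 vs SDS abundance) is given: HeLa Kyoto cells arrested at G1/S by double thymidine block, proteins quantified by TMT10plex mass spectrometry in mild NP-40 versus SDS extracts, three biological replicates.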
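Wherever thermal stability score vs G1/S (z-score of summed log2 fold changes over temperatures) is given: synchronized HeLa Kyoto cells, proteins quantified by TMT10plex mass spectrometry, three biological replicates, mitosis taken 0.5 h after nocodazole release, G1/S directly after double thymidine block.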

| Substance | solubility change mitosis (log2) [1] | thermal stability score [2, 5] | thermal stability score ([2]; cell cycle stage: mitosis) | solubility in G1/S (log2) [3] | melting temperature ([4]; cell cycle stage: G1/S) | melting temperature ([4]; cell cycle stage: mitosis) |
| --- | --- | --- | --- | --- | --- | --- |
| MDEEYDVIVLGTGLTECILSGIMSVNGKKVLHMDRNPYYGGESSSITPLEELYKRFQLLEGPPESMGRGRDWNVDLIPKFLMANGQLVKMLLYTEVTRYLDFKVVEGSFVYKGGKIYKVPSTETEALASNLMGMFEKRRFRKFLVFVANFDENDPKTFEGVDPQTTSMRDVYRKFDLGQDVIDFTGHALALYRTDDYLDQPCLETVNRIKLYSESLARYGKSPYLYPLYGLGELPQGFARLSAIYGGTYMLNKPVDDIIMENGKVVGVKSEGEVARCKQLICDPSYIPDRVRKAGQVIRIICILSHPIKNTNDANSCQIIIPQNQVNRKSDIYVCMISYAHNVAAQGKYIAIASTTVETTDPEKEVEPALELLEPIDQKFVAISDLYEPIDDGCESQVFCSCSYDATTHFETTCNDIKDIYKRMAGTAFDFENMKRKQNDVFGEAEQ [GDI1] | -0.152 | -0.651 | -1.41 | 0.0264 | 54.2 °C | 53.8 °C |
| MNAGPGCEPCTKRPRWGAATTSPAASDARSFPSRQRRVLDPKDAHVQFRVPPSSPACVPGRAGQHRGSATSLVFKQKTITSWMDTKGIKTAESESLDSKENNNTRIESMMSSVQKDNFYQHNVEKLENVSQLSLDKSPTEKSTQYLNQHQTAAMCKWQNEGKHTEQLLESEPQTVTLVPEQFSNANIDRSPQNDDHSDTDSEENRDNQQFLTTVKLANAKQTTEDEQAREAKSHQKCSKSCDPGEDCASCQQDEIDVVPESPLSDVGSEDVGTGPKNDNKLTRQESCLGNSPPFEKESEPESPMDVDNSKNSCQDSEADEETSPGFDEQEDGSSSQTANKPSRFQARDADIEFRKRYSTKGGEVRLHFQFEGGESRTGMNDLNAKLPGNISSLNVECRNSKQHGKKDSKITDHFMRLPKAEDRRKEQWETKHQRTERKIPKYVPPHLSPDKKWLGTPIEEMRRMPRCGIRLPLLRPSANHTVTIRVDLLRAGEVPKPFPTHYKDLWDNKHVKMPCSEQNLYPVEDENGERTAGSRWELIQTALLNKFTRPQNLKDAILKYNVAYSKKWDFTALIDFWDKVLEEAEAQHLYQSILPDMVKIALCLPNICTQPIPLLKQKMNHSITMSQEQIASLLANAFFCTFPRRNAKMKSEYSSYPDINFNRLFEGRSSRKPEKLKTLFCYFRRVTEKKPTGLVTFTRQSLEDFPEWERCEKPLTRLHVTYEGTIEENGQGMLQVDFANRFVGGGVTSAGLVQEEIRFLINPELIISRLFTEVLDHNECLIITGTEQYSEYTGYAETYRWSRSHEDGSERDDWQRRCTEIVAIDALHFRRYLDQFVPEKMRRELNKAYCGFLRPGVSSENLSAVATGNWGCGAFGGDARLKALIQILAAAAAERDVVYFTFGDSELMRDIYSMHIFLTERKLTVGDVYKLLLRYYNEECRNCSTPGPDIKLYPFIYHAVESCAETADHSGQRTGT [PARG] | -0.0937 | -0.493 | -0.304 | -0.159 | 50.8 °C | 50 °C |
| MNSMKTEENKSFSAMEDDQRTRPEVSKDTVMKQTHADTPVDHCLSGIRKCSSTFKLKSEVNKHETALEMQNPNLNNKECCFTFTLNGNSRKLDRSVFTAYGKPSESIYSALSANDYFSERIKNQFNKNIIVYEEKTIDGHINLGMPLKCLPSDSHFKITFGQRKSSKEDGHILRQCENPNMECILFHVVAIGRTRKKIVKINELHEKGSKLCIYALKGETIEGALCKDGRFRSDIGEFEWKLKEGHKKIYGKQSMVDEVSGKVLEMDISKKKALQQKDIHKKIKQNESATDEINHQSLIQSKKKVHKPKKDGETKDVEHSREQILPPQDLSHYIKDKTRQTIPRIRNYYFCSLPRKYRQINSQVRRRPHLGRRYAINLDVQKEAINLLKNYQTLNEAIMHQYPNFKEEAQWVRKYFREEQKRMNLSPAKQFNIYKKDFGKMTANSVSVATCEQLTYYSKSVGFMQWDNNGNTGNATCFVFNGGYIFTCRHVVHLMVGKNTHPSLWPDIISKCAKVTFTYTEFCPTPDNWFSIEPWLKVSNENLDYAILKLKENGNAFPPGLWRQISPQPSTGLIYLIGHPEGQIKKIDGCTVIPLNERLKKYPNDCQDGLVDLYDTTSNVYCMFTQRSFLSEVWNTHTLSYDTCFSDGSSGSPVFNASGKLVALHTFGLFYQRGFNVHALIEFGYSMDSILCDIKKTNESLYKSLNDEKLETYDEEKGKQESSLQDHQIEPMEC [FAM111B] | -7.96e-05 | 2.69 | 4.09 | -0.274 | 46.9 °C | 50.3 °C |
| MKKEHVLHCQFSAWYPFFRGVTIKSVILPLPQNVKDYLLDDGTLVVSGRDDPPTHSQPDSDDEAEEIQWSDDENTATLTAPEFPEFATKVQEAINSLGGSVFPKLNWSAPRDAYWIAMNSSLKCKTLSDIFLLFKSSDFITRDFTQPFIHCTDDSPDPCIEYELVLRKWCELIPGAEFRCFVKENKLIGISQRDYTQYYDHISKQKEEIRRCIQDFFKKHIQYKFLDEDFVFDIYRDSRGKVWLIDFNPFGEVTDSLLFTWEELISENNLNGDFSEVDAQEQDSPAFRCTNSEVTVQPSPYLSYRLPKDFVDLSTGEDAHKLIDFLKLKRNQQEDD [CDC123] | -0.111 | 1.5 | 0.565 | -0.058 | 51.7 °C | 50.8 °C |
| MAAPRPPPARLSGVMVPAPIQDLEALRALTALFKEQRNRETAPRTIFQRVLDILKKSSHAVELACRDPSQVENLASSLQLITECFRCLRNACIECSVNQNSIRNLDTIGVAVDLILLFRELRVEQESLLTAFRCGLQFLGNIASRNEDSQSIVWVHAFPELFLSCLNHPDKKIVAYSSMILFTSLNHERMKELEENLNIAIDVIDAYQKHPESEWPFLIITDLFLKSPELVQAMFPKLNNQERVTLLDLMIAKITSDEPLTKDDIPVFLRHAELIASTFVDQCKTVLKLASEEPPDDEEALATIRLLDVLCEMTVNTELLGYLQVFPGLLERVIDLLRVIHVAGKETTNIFSNCGCVRAEGDISNVANGFKSHLIRLIGNLCYKNKDNQDKVNELDGIPLILDNCNISDSNPFLTQWVIYAIRNLTEDNSQNQDLIAKMEEQGLADASLLKKVGFEVEKKGEKLILKSTRDTPKP [ATXN10] | -0.135 | 0.984 | 1.43 | 0.202 | 51.9 °C | 51.1 °C |
| MGCDGGTIPKRHELVKGPKKVEKVDKDAELVAQWNYCTLSQEILRRPIVACELGRLYNKDAVIEFLLDKSAEKALGKAASHIKSIKNVTELKLSDNPAWEGDKGNTKGDKHDDLQRARFICPVVGLEMNGRHRFCFLRCCGCVFSERALKEIKAEVCHTCGAAFQEDDVIMLNGTKEDVDVLKTRMEERRLRAKLEKKTKKPKAAESVSKPDVSEEAPGPSKVKTGKPEEASLDSREKKTNLAPKSTAMNESSSGKAGKPPCGATKRSIADSEESEAYKSLFTTHSSAKRSKEESAHWVTHTSYCF [RTFDC1] | -0.0475 | 1.24 | 2.61 | 0.0863 | 47.6 °C | 50.2 °C |
| MEQLSSANTRFALDLFLALSENNPAGNIFISPFSISSAMAMVFLGTRGNTAAQLSKTFHFNTVEEVHSRFQSLNADINKRGASYILKLANRLYGEKTYNFLPEFLVSTQKTYGADLASVDFQHASEDARKTINQWVKGQTEGKIPELLASGMVDNMTKLVLVNAIYFKGNWKDKFMKEATTNAPFRLNKKDRKTVKMMYQKKKFAYGYIEDLKCRVLELPYQGEELSMVILLPDDIEDESTGLKKIEEQLTLEKLHEWTKPENLDFIEVNVSLPRFKLEESYTLNSDLARLGVQDLFNSSKADLSGMSGARDIFISKIVHKSFVEVNEEGTEAAAATAGIATFCMLMPEENFTADHPFLFFIRHNSSGSILFLGRFSSP [SERPINB1] | -0.165 | 1.35 | -2.02 | 0.121 | 53.2 °C | 53.2 °C |
| EIF5A | 0.0244 | 0.791 | 0.0469 | 0.638 | 49.7 °C | 50.7 °C |
| MIEQQKRKGPELPLVPVKRQRHELLLGAGSGPGAGQQQATPGALLQAGPPRCSSLQAPIMLLSGHEGEVYCCKFHPNGSTLASAGFDRLILLWNVYGDCDNYATLKGHSGAVMELHYNTDGSMLFSASTDKTVAVWDSETGERVKRLKGHTSFVNSCYPARRGPQLVCTGSDDGTVKLWDIRKKAAIQTFQNTYQVLAVTFNDTSDQIISGGIDNDIKVWDLRQNKLTYTMRGHADSVTGLSLSSEGSYLLSNAMDNTVRVWDVRPFAPKERCVKIFQGNVHNFEKNLLRCSWSPDGSKIAAGSADRFVYVWDTTSRRILYKLPGHAGSINEVAFHPDEPIIISASSDKRLYMGEIQ [SNRNP40] | 0.366 | -0.469 | -0.465 | -1.09 | 49.9 °C | 50.7 °C |
| MQEKDASSQGFLPHFQHFATQAIHVGQDPEQWTSRAVVPPISLSTTFKQGAPGQHSGFEYSRSGNPTRNCLEKAVAALDGAKYCLAFASGLAATVTITHLLKAGDQIICMDDVYGGTNRYFRQVASEFGLKISFVDCSKIKLLEAAITPETKLVWIETPTNPTQKVIDIEGCAHIVHKHGDIILVVDNTFMSPYFQRPLALGADISMYSATKYMNGHSDVVMGLVSVNCESLHNRLRFLQNSLGAVPSPIDCYLCNRGLKTLHVRMEKHFKNGMAVAQFLESNPWVEKVIYPGLPSHPQHELVKRQCTGCTGMVTFYIKGTLQHAEIFLKNLKLFTLAESLGGFESLAELPAIMTHASVLKNDRDVLGISDTLIRLSVGLEDEEDLLEDLDQALKAAHPPSGSHS [CTH] | -0.134 | -1.76 | -0.741 | 0.283 | 59 °C | 58.5 °C |
| MSLYDDLGVETSDSKTEGWSKNFKLLQSQLQVKKAALTQAKSQRTKQSTVLAPVIDLKRGGSSDDRQIVDTPPHVAAGLKDPVPSGFSAGEVLIPLADEYDPMFPNDYEKVVKRQREERQRQRELERQKEIEEREKRRKDRHEASGFARRPDPDSDEDEDYERERRKRSMGGAAIAPPTSLVEKDKELPRDFPYEEDSRPRSQSSKAAIPPPVYEEQDRPRSPTGPSNSFLANMGGTVAHKIMQKYGFREGQGLGKHEQGLSTALSVEKTSKRGGKIIVGDATEKDASKKSDSNPLTEILKCPTKVVLLRNMVGAGEVDEDLEVETKEECEKYGKVGKCVIFEIPGAPDDEAVRIFLEFERVESAIKAVVDLNGRYFGGRVVKACFYNLDKFRVLDLAEQV [RBM17] | 0.318 | 0.948 | 4.62 | -0.32 | 48.3 °C | 49.3 °C |
| TPR | 0.191 | -1.4 | 0.657 | -0.23 | 50.3 °C | 50.8 °C |
| MADPDVLTEVPAALKRLAKYVIRGFYGIEHALALDILIRNSCVKEEDMLELLKFDRKQLRSVLNNLKGDKFIKCRMRVETAADGKTTRHNYYFINYRTLVNVVKYKLDHMRRRIETDERDSTNRASFKCPVCSSTFTDLEANQLFDPMTGTFRCTFCHTEVEEDESAMPKKDARTLLARFNEQIEPIYALLRETEDVNLAYEILEPEPTEIPALKQSKDHAATTAGAASLAGGHHREAWATKGPSYEDLYTQNVVINMDDQEDLHRASLEGKSAKERPIWLRESTVQGAYGSEDMKEGGIDMDAFQEREEGHAGPDDNEEVMRALLIHEKKTSSAMAGSVGAAAPVTAANGSDSESETSESDDDSPPRPAAVAVHKREEDEEEDDEFEEVADDPIVMVAGRPFSYSEVSQRPELVAQMTPEEKEAYIAMGQRMFEDLFE [GTF2E1] | -0.0795 | 2.94 | 5.05 | -0.111 | 48.4 °C | 49.4 °C |
| MEDDAPVIYGLEFQARALTPQTAETDAIRFLVGTQSLKYDNQIHIIDFDDENNIINKNVLLHQAGEIWHISASPADRGVLTTCYNRTSDSKVLTCAAVWRMPKELESGSHESPDDSSSTAQTLELLCHLDNTAHGNMACVVWEPMGDGKKIISLADNHILLWDLQESSSQAVLASSASLEGKGQLKFTSGRWSPHHNCTQVATANDTTLRGWDTRSMSQIYCIENAHGQLVRDLDFNPNKQYYLASCGDDCKVKFWDTRNVTEPVKTLEEHSHWVWNVRYNHSHDQLVLTGSSDSRVILSNMVSISSEPFGHLVDDDDISDQEDHRSEEKSKEPLQDNVIATYEEHEDSVYAVDWSSADPWLFASLSYDGRLVINRVPRALKYHILL [TSSC1] | -0.21 | -0.291 | -0.357 | 0.0334 | 51.9 °C | 52.9 °C |
